Non-standard residues stand in square brackets, D forms with d. Primed or numbered codes have the meaning given here. No end group written: not given here. Lys(N3)′ = its azide, alkyne or alkene has reacted where a group follows in round brackets; DBCO′ = not defined here; F′ = aminophenylalanine; Ahx = NCCCCCC(=O)O
Key:
[1] = Particle size and stability of amphiphilic carrier molecules by dynamic light scattering; assay type: physicochemical; conditions: PBS pH 7.4, 0.5 mg/mL, peptide-based linear carriers
Description: This reaction scheme was used to prepare different compositions of amphiphilic carrier molecules that were characterized for the capacity to form stable nanoparticle micelles in aqueous buffer, PBS pH 7.4, at a concentration of 0.5 mg/mL of amphiphilic carrier molecule. The results of these studies are summarized below according to the chemical composition and architecture of the amphiphilic carrier molecule.
A series of linear amphiphilic carriers of formula C-B-L-H, wherein the charged moiety (C) and spacer (B) comprises peptides, i.e., poly(lysine) and poly(serine-co-glycine), respectively, with varying hydrophobic block composition were evaluated for particle size and stability by dynamic light scattering. […]

CD8 T cell responses [2] = experiment: CD8 T cell response of mice vaccinated with Cpne1 peptide antigen conjugates, intracellular cytokine staining for IFN-g; assay type: in vivo, C57BL/6 mice; conditions: SC route; vaccinated day 0, 14, 28; whole blood
Description: Mice were vaccinated on day 0, 14, and 28. CD8 T cell responses were measured on day 7, 21, 35, and 42 from whole blood using an intracellular cytokine staining assay for IFN-g production; and
To evaluate the suitability of immunogenic compositions based on peptide antigen fragments comprising aryl amines, mice were either vaccinated with peptide antigen conjugates of formula C-B1-A-B2-L-H, either comprising a charged moiety with positive charge, […] Tyr-Ser-Pro-Val-Cit-Lys(N3-DBCO)-Glu(2B)-Trp-Glu(2B)-Trp-Glu(2B)—NH2 (SEQ ID NO: 76) or a charged moiety with negative charge and a B2 comprised of amino acids bearing aryl amines, i.e., Ac-Glu-Glu-Glu-Glu-Glu-Val-Cit-[…]Try-[…]Cit-Phe(NH2)-Phe(NH2)-Phe(NH2)-Phe(NH2)-Lys(N3-DBCO)-Glu(2B)-Trp-Glu(2B)-Trp-Glu(2B)—NH2 (SEQ ID NO: 42), wherein Phe(NH2) is para-amino-phenylalanine.

CD8 T cell responses [3] = experiment: CD8 T cell response of mice vaccinated with Adpgk peptide antigen conjugates, intracellular cytokine staining for IFN-g; assay type: in vivo, C57BL/6 mice; conditions: SC route; vaccinated day 0, 14, 28; whole blood
Description: Mice were vaccinated on day 0, 14, and 28. CD8 T cell responses were measured on day 12, 21, and 35 from whole blood using an intracellular cytokine staining assay for IFN-g production;

| Substance | Size (diameter, nm) [1] [nm] | other results |
| --- | --- | --- |
| KKK-SGSGSGSGSGSGSGSGSGSGSGSG-(Lys(N3-DBCO))-Ahx-(F′)5: peptide-based linear amphiphilic carrier molecule C-B-L-H (chain 1 KKKSGSGSGSGSGSGSGSGSGSGSGSG[Lys(N3)′](DBCO′)[Ahx]; chain 2 [F′][F′][F′][F′][F′]; also: chain 2 (F′)5 follows Ahx of chain 1) | 1013 | – |
| KKK-SGSGSGSGSGSGSGSGSGSGSGSG-(Lys(N3-DBCO))-Bis(Ahx-F′10)2: peptide-based linear amphiphilic carrier molecule C-B-L-H (chain 1 KKKSGSGSGSGSGSGSGSGSGSGSGSG[Lys(N3)′](DBCO′)[Ahx]; chain 2 [F′][F′][F′][F′][F′][F′][F′][F′][F′][F′]; also: two Ahx-F′10 arms, branching not given here, one arm shown) | 2683 | – |
| KKK-SGSGSGSGSGSGSGSGSGSGSGSG-(Lys(N3-DBCO))-Ahx-(F′)20: peptide-based linear amphiphilic carrier molecule C-B-L-H (chain 1 KKKSGSGSGSGSGSGSGSGSGSGSGSG[Lys(N3)′](DBCO′)[Ahx]; chain 2 [F′][F′][F′][F′][F′][F′][F′][F′][F′][F′][F′][F′][F′][F′][F′][F′][F′][F′][F′][F′]; also: chain 2 (F′)20 follows Ahx of chain 1) | 1521 | – |
| KKK-SGSGSGSGSGSGSGSGSGSGSGSG-(Lys(N3-DBCO))-Ahx-(F′)10: peptide-based linear amphiphilic carrier molecule C-B-L-H (chain 1 KKKSGSGSGSGSGSGSGSGSGSGSGSG[Lys(N3)′](DBCO′)[Ahx]; chain 2 [F′][F′][F′][F′][F′][F′][F′][F′][F′][F′]; also: chain 2 (F′)10 follows Ahx of chain 1) | 3839 | – |
| KKKKKKK-SGSGSGSGSGSGSGSGSGSGSGSG-(Lys(N3-DBCO))-Ahx-(F′)20: peptide-based linear amphiphilic carrier molecule C-B-L-H | 32 | – |
| Lys-Lys-Lys-Lys-Lys-Lys-Lys-Lys-Lys-Val-Arg-Asp-Phe-Thr-Gly-Ser-Asn-Gly-Asp-Pro-Ser-Ser-Pro-Tyr-Ser-Leu-His-Tyr-Leu-Ser-Pro-Thr-Gly-Val-Asn-Glu- Tyr-Ser-Pro-Val-Cit-Lys(N3-DBCO)-Glu(2B)-Trp-Glu(2B)-Trp-Glu(2B)—NH2 (KKKKKKKKKVRDFTGSNGDPSSPYSLHYLSPTGVNEYSPVXX; citrulline, DBCO click conjugate, amidated; SITE 41 citrulline (Cit); SITE 42 azido-lysine (Lys(N3))) [SEQ ID NO: 76, positively charged Cpne1 peptide antigen conjugate] | – | CD8 T cell responses detected in vaccinated animals (CD8 T cell responses [2]): detected in all vaccinated animals |
| Ac-Glu-Glu-Glu-Glu-Glu-Val-Cit-Asp-Phe-Thr-Gly-Ser-Asn-Gly-Asp-Pro-Ser-Ser-Pro-Try-Ser-Leu-His-Tyr-Leu-Ser-Pro-Thr-Gly-Val-Asn-Glu-Tyr-Ser-Pro-Val-Cit-Phe(NH2)-Phe(NH2)-Phe(NH2)-Phe(NH2)-Lys(N3-DBCO)-Glu(2B)-Trp-Glu(2B)-Trp-Glu(2B)—NH2 (EEEEEVXDFTGSNGDPSSPYSLHYLSPTGVNEYSPVXXXXXX; acetyl, citrulline, DBCO click conjugate, amidated; SITE 1 Wherein Glu is modified with an acetyl group at the N-terminus; SITE 7 citrulline (Cit); SITE 37 citrulline (Cit); SITE 38..41 para-amino-phenylalanine.; SITE 42 azido-lysine (Lys(N3))) [SEQ ID NO: 42, negatively charged Cpne1 peptide antigen conjugate] | – | CD8 T cell responses detected in vaccinated animals (CD8 T cell responses [2]): detected in all vaccinated animals; CD8 T cell responses, tris salts of the negatively charged conjugate (CD8 T cell responses [2]): CD8 T cell responses were induced in all animals |
| KKKKKKK-SGSGSGSGSGSGSGSGSGSGSGSG-(Lys(N3-DBCO))-Ahx-(F′)5: peptide-based linear amphiphilic carrier molecule C-B-L-H | 477 | – |
| Ac-Glu-Glu-Glu-Glu-Glu-Glu-Glu-Val-Cit-Gly-Ile-Pro-Val-His-Leu-Glu-Leu-Ala-Ser-Met-Thr-Asn-Met-Glu-Leu-Met-Ser-Ser-Ile-Val- His-Gln-Gln-Val-Phe-Pro-Thr-Ser-Pro-Val-Cit-Phe(NH2)-Phe(NH2)-Phe(NH2)-Phe(NH2)-Lys(N3-DBCO)-Glu(2B)-Trp-Glu(2B)-Trp-Glu(2B)—NH2 (EEEEEEEVXGIPVHLELASMTNMELMSSIVHQQVFPTSPVXXXXXX; N-acetyl, citrulline, Phe(NH2), DBCO click, Glu(2B), amide; SITE 1 Wherein Glu is modified with an acetyl group at the N-terminus; SITE 9 citrulline (Cit); SITE 41 citrulline (Cit); SITE 42..45 para-amino-phenylalanine; SITE 46 azido-lysine (Lys(N3))) [SEQ ID NO: 40] | – | CD8 T cell responses (CD8 T cell responses [3]): CD8 T cell responses were induced in all animals |
